Laboratory results published in article PMC11855334, “Exploring the Potential of Glutathione Reductase Overexpression to Improve Tellurium Nanoparticle Production in Escherichia coli” (International Journal of Molecular Sciences, 2025).

Tests used:
[1] = target: glutathione reductase from Pseudomonas lini strain BNF22 (Pseudomonas lini (strain BNF22)); assay: SEC; Superdex 200; 20 mM sodium phosphate pH 7.4, 200 mM NaCl, 1 mM β-mercaptoethanol; elution times compared to a gel filtration protein standard; homodimer
[2] = target: the molecule itself; assay: as above

Row | Molecule | stoichiometry N [1] | stoichiometry N [2]
1 | glutathione reductase from Pseudomonas lini strain BNF22 (enzyme) | 2 | 
2 | glutathione reductase from E. coli (enzyme, UniProt P06715 1-450, looked up, glutathione reductase (GR) of Escherichia coli; cloned in earlier work of the same laboratory; also called E. coli GR; GR; source: E. coli C41 (DE3), purified (HisTrap HP)) MTKHYDYIAIGGGSGGIASINRAAMYGQKCALIEAKELGGTCVNVGCVPKKVMWHAAQIREAIHMYGPDYGFDTTINKFNWETLIASRTAYIDRIHTSYENVLGKNNVDVIKGFARFVDAKTLEVNGETITADHILIATGGRPSHPDIPGVEYGIDSDGFFALPALPERVAVVGAGYIAVELAGVINGLGAKTHLFVRKHAPLRSFDPMISETLVEVMNAEGPQLHTNAIPKAVVKNTDGSLTLELEDGRSETVDCLIWAIGREPANDNINLEAAGVKTNEKGYIVVDKYQNTNIEGIYAVGDNTGAVELTPVAVAAGRRLSERLFNNKPDEHLDYSNIPTVVFSHPPIGTVGLTEPQAREQYGDDQVKVYKSSFTAMYTAVTTHRQPCRMKLVCVGSEEKIVGIHGIGFGMDEMLQGFAVALKMGATKKDFDNTVAIHPTAAEEFVTMR |  | 2
3 | glutathione reductase from Enterobacter cloacae strain MF01 (enzyme) MTKHYDYIAIGGGSGGIASINRAAMYGQKCALIEAKALGGTCVNVGCVPKKVMWHAAQIREAIHMYGPDYGFDTTINHFDWEKLIASRTAYIDRIHTSYDNVLGKNNVDVIHGFARFVDAKTIEVNGETITADHILIATGGRPSHPNIPGAEYGIDSDGFFVLPALPERVAVVGAGYIAVELAGVINGLGAEAHLFVRKHAPLRSFDPLIVDTLVEVMNTEGPTLHTNAVPKAVIKNADGSLTLELEDGRSQTVDCLIWAIGREPANDNFNLAVTGVKTDEKGYIVVDKFQNTSVPGIYAVGDNTGAVELTPVAVAAGRRLSERLFNNKPDEHLDYSNIPTVVFSHPPIGTVGLTEPQAREQYGDDQVKVYKSAFTAMYTAVTSHRQPCRMKLVCVGPEEKIVGIHGIGFGMDEILQGFAVALKMGATKKDFDNTVAIHPTAAEEFVTMR |  | 2
4 | glutathione reductase from Psychrobacter immobilis strain BNF08 (enzyme) MTKHYDYIAIGGGSGGIASINRAASYGKKCAVIEANQLGGTCVNLGCVPKKVMWYGAQIAEAIHKYAPDYGFNVDVKGFDFQKLVQSRQQYIENIHRSYDNNLAKNGVEVIKGFAKFVDTNTVEVNGELITADHILIATGGHPIQPDIKGAEYGIDSDGFFALNHLPKRVAIVGAGYIAVEIAGVLNSLGAEVHLYVRQHSPLRSFDHSVVEALLIEMEQDGIQLHTNTTLTEVNKNEDGSLTLCTENGSLDTTDCLIWAIGRAPSTDNINLQVTGVETNEIGKIKVDKFQNTNVKNIYAVGDIIENSVDLTPVAIAAGRRLSERLFNNKPNEHLDYTLIPTVIFTHPAIGTIGLSEIDAVERYGKENIKCYKSTFTSMYSAVTQHRQKCMMKLVCLGDEEKVIGLHGLGFGVDEMIQGFAVAIKMGATKADFDNTVAIHPTGSEEFVTMR |  | 2
